The values that follow come from publication PMC2935088.

The series deals with T1, DesT (selenomethionine) (Pseudomonas aeruginosa, UniProt Q9HUS3 1-209).
T1 sequence: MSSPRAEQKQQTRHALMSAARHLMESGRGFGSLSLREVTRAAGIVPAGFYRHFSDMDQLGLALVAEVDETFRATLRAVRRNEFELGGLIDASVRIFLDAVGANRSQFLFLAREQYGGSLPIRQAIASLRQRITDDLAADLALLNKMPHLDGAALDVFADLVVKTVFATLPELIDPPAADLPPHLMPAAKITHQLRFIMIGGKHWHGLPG
In words: X-ray crystallography.

B1: desCB promoter 30mer crystallization duplex (dsDNA)
DNA 1: TTACATCAGTGAACGCTTGTTGACTCGATTG
DNA 2: CAATCGAGTCAACAAGCGTTCACTGATGTA
Regarding B1, the binding result is reported as “binds”.
